B1: PKD2L1 (parent)
chain: YSGGGYYLDLPGSRQGSAEALRAL

Variants of: B1
Assay: protein stability index of a GFP-peptide fusion (GPS, HEK-293T) (PSI 1-6); higher = more stable
Conditions: c terminus: a fixed tail appended
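Note: lentivirally expressed fusions sorted by FACS into six bins by GFP to DsRed ratio, PSI derived from sequencing read proportions per bin multiplied by bin number.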

| Variant | protein stability index |
| --- | --- |
| YSGGGYYLDLPGYRQGSAEALRAL [S13Y] | 1.96 |
| YSGGGYYLDLPGSRQGSAKALRAL [E19K] | 1.98 |
| YSGGGYYLDLPGSRQGSAGALRAL [E19G] | 2.02 |
| YSGGGYYLDLPGSRQGSAHALRAL [E19H] | 1.42 |
| YSGGGYYLDLPGSRQGSAIALRAL [E19I] | 1.45 |
| YSGGGYYLDLPGSRQGSANALRAL [E19N] | 1.77 |
| YSGGGYYLDLPGSRQGSADALRAL [E19D] | 1.81 |
| YSGGGYYLDLPGSRQGSAMALRAL [E19M] | 2.09 |
| YSGGGYYLDLPGSRQGSALALRAL [E19L] | 1.84 |
| YSGGGYYLDLPGSRQGSAFALRAL [E19F] | 2.33 |
| YSGGGYYLDLPGSRQGSAAALRAL [E19A] | 1.64 |
| YSGGGYYLDLPGSRQGSACALRAL [E19C] | 2.27 |
| YSGGGYYLTLPGSRQGSAEALRAL [D9T] | 3.34 |
| YSGGGYYLRLPGSRQGSAEALRAL [D9R] | 2 |
| YSGGGYYLYLPGSRQGSAEALRAL [D9Y] | 4.13 |
| YSGGGYYLSLPGSRQGSAEALRAL [D9S] | 1.83 |
| YSGGGYYLWLPGSRQGSAEALRAL [D9W] | 2.87 |
| YSGGGYYLQLPGSRQGSAEALRAL [D9Q] | 1.24 |
| YSGGGYYLDLPGSRQCSAEALRAL [G16C] | 1.86 |
| YSGGGYYLDLPGSRQRSAEALRAL [G16R] | 1.98 |
| YSGGGYYLDLPGSRQASAEALRAL [G16A] | 1.94 |
| YSGGGYYLDLPGSRQDSAEALRAL [G16D] | 2.02 |
| YSGGGYYLDLPGSRQLSAEALRAL [G16L] | 1.57 |
| YSGGGYYLDLPGSRQSSAEALRAL [G16S] | 2.27 |

| Variant | protein stability index |
| --- | --- |
| YSGGGYYLDLPGSRQWSAEALRAL [G16W] | 2.5 |
| YSGGGYYLDLPGSRQNSAEALRAL [G16N] | 1.51 |
| YSGGGYYLDLPGSRQHSAEALRAL [G16H] | 2.66 |
| YSGGGYYLDLPGSRQMSAEALRAL [G16M] | 1.02 |
| YSGGGYYLDLPGSRQTSAEALRAL [G16T] | 1.84 |
| YSGGGYYLDLPGSRQYSAEALRAL [G16Y] | 2.13 |
| YSGGGYYLDLPGSRQKSAEALRAL [G16K] | 1.97 |
| YSGGGYYLDLPGSRQVSAEALRAL [G16V] | 1.77 |
| YSGGGYYLDLPGSRQQSAEALRAL [G16Q] | 2 |
| YSGGGYYLDLPGSRQPSAEALRAL [G16P] | 1.92 |
| YSGGGYYLDLPGSRQFSAEALRAL [G16F] | 1.38 |
| YSGGGYYLDLPGSRQESAEALRAL [G16E] | 1.92 |
| YSGGGYYLDLPGSRQISAEALRAL [G16I] | 2.3 |
| YSGGGYYLDLPASRQGSAEALRAL [G12A] | 2.05 |
| YSGGGYYLDLPMSRQGSAEALRAL [G12M] | 2.54 |
| YSGGGYYLDLPNSRQGSAEALRAL [G12N] | 2.36 |
| YSGGGYYLDLPYSRQGSAEALRAL [G12Y] | 1.49 |
| YSGGGYYLDLPFSRQGSAEALRAL [G12F] | 1.57 |
| YSGGGYYLDLPQSRQGSAEALRAL [G12Q] | 1.95 |
| YSGGGYYLDLPCSRQGSAEALRAL [G12C] | 1.24 |
| YSGGGYYLDLPHSRQGSAEALRAL [G12H] | 1.96 |
| YSGGGYYLDLPSSRQGSAEALRAL [G12S] | 2.21 |
| YSGGGYYLDLPISRQGSAEALRAL [G12I] | 1.55 |
| YSGGGYYLDLPVSRQGSAEALRAL [G12V] | 2.22 |

| Variant | protein stability index |
| --- | --- |
| YSGGGYYLDLPESRQGSAEALRAL [G12E] | 2 |
| YSGGGYYLDLPLSRQGSAEALRAL [G12L] | 2.15 |
| YSGGGYYLDLPWSRQGSAEALRAL [G12W] | 2.39 |
| YSGGGYYLDLPPSRQGSAEALRAL [G12P] | 2.05 |
| YSGGGYYLDLPDSRQGSAEALRAL [G12D] | 2.09 |
| YSGGGYYLDLPKSRQGSAEALRAL [G12K] | 1.74 |
| YSGGGYYLDLPTSRQGSAEALRAL [G12T] | 1.88 |
| YSGGGYYLDLPRSRQGSAEALRAL [G12R] | 1.59 |
| YSGGGYYLDLPGSRQGHAEALRAL [S17H] | 2.36 |
| YSGGGYYLDLPGSRQGYAEALRAL [S17Y] | 2.03 |
| YSGGGYYLDLPGSRQGKAEALRAL [S17K] | 1.78 |
| YSGGGYYLDLPGSRQGWAEALRAL [S17W] | 1.98 |
| YSGGGYYLDLPGSRQGVAEALRAL [S17V] | 1.61 |
| YSGGGYYLDLPGSRQGNAEALRAL [S17N] | 2.01 |
| YSGGGYYLDLPGSRQGPAEALRAL [S17P] | 2.32 |
| YSGGGYYLDLPGSRQGQAEALRAL [S17Q] | 3.08 |
| YSGGGYYLDLPGSRQGCAEALRAL [S17C] | 1.39 |
| YSGGGYYLDLPGSRQGGAEALRAL [S17G] | 3.5 |
| YSGGGYYLDLPGSRQGFAEALRAL [S17F] | 1.98 |
| YSGGGYYLDLPGSRQGEAEALRAL [S17E] | 2 |
| YSGGGYYLDLPGSRQGLAEALRAL [S17L] | 2.13 |
| YSGGGYYLDLPGSRQGMAEALRAL [S17M] | 2.3 |
| YSGGGYYLDLPGSRQGAAEALRAL [S17A] | 1.6 |
| YSGGGYYLDLPGSRQGDAEALRAL [S17D] | 1.92 |

| Variant | protein stability index |
| --- | --- |
| YSGGGYYLDLPGSRQGRAEALRAL [S17R] | 1.41 |
| YSGGGYYLDLPGSRQGTAEALRAL [S17T] | 2 |
| YSGGGYYLDLPGSRQGIAEALRAL [S17I] | 1.75 |
| YSGGGYYLDGPGSRQGSAEALRAL [L10G] | 1.56 |
| YSGGGYYLDMPGSRQGSAEALRAL [L10M] | 1.66 |
| YSGGGYYLDNPGSRQGSAEALRAL [L10N] | 1.6 |
| YSGGGYYLDHPGSRQGSAEALRAL [L10H] | 1.58 |
| YSGGGYYLDIPGSRQGSAEALRAL [L10I] | 2.33 |
| YSGGGYYLDYPGSRQGSAEALRAL [L10Y] | 1.81 |
| YSGGGYYLDVPGSRQGSAEALRAL [L10V] | 2.17 |
| YSGGGYYLDDPGSRQGSAEALRAL [L10D] | 2.02 |
| YSGGGYYLDRPGSRQGSAEALRAL [L10R] | 2.97 |
| YSGGGYYLDAPGSRQGSAEALRAL [L10A] | 2.27 |
| YSGGGYYLDTPGSRQGSAEALRAL [L10T] | 2.35 |
| YSGGGYYLDEPGSRQGSAEALRAL [L10E] | 2.69 |
| YSGGGYYLDCPGSRQGSAEALRAL [L10C] | 2.31 |
| YSGGGYYLDKPGSRQGSAEALRAL [L10K] | 1.73 |
| YSGGGYYLDSPGSRQGSAEALRAL [L10S] | 1.46 |
| YSGGGYYLDFPGSRQGSAEALRAL [L10F] | 2.09 |
| YSGGGYYLDWPGSRQGSAEALRAL [L10W] | 1.14 |
| YSGGGYYLDQPGSRQGSAEALRAL [L10Q] | 1.27 |
| YSGGGYYLDPPGSRQGSAEALRAL [L10P] | 1.9 |
